# From US10591466B2, “In vitro blood-brain barrier model” (priority 2014, dated 2020)
# Values joined by “and” are separate entries in the source; they are usually repeats but may differ in a detail not shown here. Equal values may be shown once. “Also recorded” adds a separate entry of the source. Read-outs that look alike come from different tables or passages of the source.
# Assays:
# [1] = Isoelectric point (pI) of VHH / VHH-comprising polypeptide; assay type: physicochemical
# [2] = tested on: human brain extract (Sg tau 4697); assay: Western blotting of VHH on human brain extract; assay type: binding; conditions: VHH 1 μg/ml
# Protocol: (§1) The specificity of the VHH of the invention (A12) as compared to a control VHH recognizing brain proteins (H8/E9, identical to VHH E9, Perruchini et al.) was determined by western blotting on 3 different antigens: a human brain extract (Sg tau 4697), a mouse brain extract (Tg 4510) and on a purified protein, GFAP, a specific marker of astrocytes. […] Furthermore, VHH immunohistochemistry was performed from Tg4510 mouse tissues (Grueninger et al, 2010) harbouring NFTs. […] For western blotting, first we performed a polyacrylamide gel electrophoresis at 200 V for 45 min. Then we transferred proteins from gel to nitrocellulose membrane during 1H at 30 V. We saturated nitrocellulose membrane with PBS milk 2% for 1H under stirring. The membrane was then incubated for 1H with selected VHH diluted at 1 μg/ml in PBS milk 2%, and washed 3 times 5 min with PBS Tween. A secondary mouse mAb C23-21 recognizing Strep-tag (DI 2012-32 High-affinity monoclonal anti-Strep-Tag antibody C23.21; Girard-blanc C., Krey T., Vasiliauskaite ieva, Nato F., Lafaye P., Dartevelle S., Rey F.) was added at 1:2500 and incubated 1H at 37° C. Then after additional washes, an anti-mouse mAb labelled with peroxidase was added for 1 H. Three washes of 5 min in PBS Tween were performed.
# [3] = tested on: Tg 4510 mouse brain tissue; assay: Immunohistochemistry on Tg 4510 mouse brain sections; assay type: binding; conditions: Tg 4510 paraffin-embedded mouse brain sections
# Protocol: as §1
# [4] = target: GFAP (glial fibrillary astrocytic protein) (Homo sapiens, UniProt P14136); assay: Western blotting of VHH on purified GFAP; assay type: binding; conditions: VHH 1 μg/ml
# Protocol: as §1
# [5] = tested on: mouse brain extract (Tg 4510); assay: Western blotting of VHH on mouse brain extract; assay type: binding; conditions: VHH 1 μg/ml
# Protocol: as §1
# Chain of GFAP (glial fibrillary astrocytic protein) (P14136 whole entry, species assumed): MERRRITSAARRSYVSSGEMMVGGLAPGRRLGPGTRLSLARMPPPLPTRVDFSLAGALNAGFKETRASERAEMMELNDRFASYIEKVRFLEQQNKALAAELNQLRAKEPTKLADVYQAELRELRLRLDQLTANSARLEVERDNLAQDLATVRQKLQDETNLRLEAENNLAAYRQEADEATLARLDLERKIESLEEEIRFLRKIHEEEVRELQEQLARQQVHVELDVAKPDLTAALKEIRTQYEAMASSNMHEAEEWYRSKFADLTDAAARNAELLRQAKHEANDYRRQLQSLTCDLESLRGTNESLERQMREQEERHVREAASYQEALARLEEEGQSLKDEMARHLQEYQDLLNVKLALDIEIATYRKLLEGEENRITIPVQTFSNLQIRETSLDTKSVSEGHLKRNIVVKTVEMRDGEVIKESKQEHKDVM
Molecule,isoelectric point (pI) [1],reactivity by western blotting against human brain extract [2],reactivity by western blotting against human brain extract ([2]; listed as VHH A2),immunoreactivity / labelling by immunohistochemistry [3],reactivity by western blotting against GFAP [4],reactivity by western blotting against GFAP ([4]; listed as VHH A2),isoelectric point (pI) ([1]; listed as SEQ ID NO:3),reactivity by western blotting against mouse brain extract [5],reactivity by western blotting against mouse brain extract ([5]; listed as VHH A2)
RRVNRSEPTQHNLRGTGREVSVTPQSGKIISSWEVHGQQTRL [Neurovita 3],basic,,,,,,,,
"VHH A12: alpaca VHH with the sequence of SEQ ID NO:3, selected from an immune library; does not recognize any human brain protein (protein) VHH: EVQLQASGGGLAQPGGSLRLSVTVSGSIDVINNMAWYRQAPGNARELVATITSGFSTNYASSVKGRFTISRDNAKKAVYLQMNSLKPEDTADYYSKVHLIRLGAARAYDYWGQGTQVTVS",9.78 and > 8.5 and 9.86,does not recognize any human brain protein; also recorded: no reactivity; also recorded: not to recognize any brain protein,no bands were detected,no immunoreactivity; also recorded: no labelling was observed; also recorded: not to recognize any brain protein,no reactivity; also recorded: not to recognize any brain protein,no bands were detected,> 9,no reactivity; also recorded: not to recognize any brain protein,no bands were detected
